We go through 38 sequences from the supplement of paper PMC9170038.

The subject of series [1] is MS2 coat protein. As to the kind of experiment: apparent KD of MS2 coat protein, switch ON state; designed switch direction (-1 OFF switch, 1 ON switch): 1; higher = weaker reporter binding. The settings on record: FMN input: 0 or 200 uM; Eterna round: R93 (includes R88 designs). The method, boiled down: (§1)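 Designed RNA switches were transcribed on-chip from Illumina sequencing clusters. SNAP-549-labelled MS2 coat protein was titrated onto them in twofold steps from 0.7 or 1.5 nM to 3 µM in 100 mM Tris-HCl pH 7.5, 80 mM KCl, 4 mM MgCl2, either without or with constant ligand. Apparent KD reflects the per-design median of normalised cluster binding-curve fits.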

Series [2] deals with MS2 coat protein. As to the kind of experiment: apparent KD of MS2 coat protein, switch OFF state (with FMN for OFF switches, without FMN for ON switches); designed switch direction (-1 OFF switch, 1 ON switch): 1; higher = weaker reporter binding. The settings on record: FMN input: 0 or 200 uM; Eterna round: R93 (includes R88 designs). The method, boiled down:
as §1

For “AACAAUCUAUCUGAGGAUAUCAUUUCAAAGACAUGAGGAUCACCCAUGUCCAGGAAAACUGGAAAUGAGAAGGCAGAUAGAUUGA [SS2: 1106]”, the “apparent KD of MS2 coat protein” value amounted to 11.7 nM in the series with MS2 coat protein [1] and 9.31 nM in the series with MS2 coat protein [2].

Turning to “AACAAUCUAUCUGAGGAUAUGUGUCGAAAGACAUGAGGAUCACCCAUGUAAAAACAUGGAAAGAUACAGAAGGCAGAUAGAUUGA [SS2: 1157]”, the “apparent KD of MS2 coat protein” value with MS2 coat protein [1] was found to be 28.4 nM; in the series with MS2 coat protein [2] it was 107 nM.

Consider “AACAUACAUGAGGAUCACCCAUGUUCCGGCAGGUCAGGAUAUGUAUCGAAAGAGUUAUAAACAGAAGGGACAUAAA [JR_SS001_Sub010]”, for which the figures for the “apparent KD of MS2 coat protein” value with MS2 coat protein [1] and in the series on MS2 coat protein [2] were 32.4 nM and 56.9 nM, respectively.

Regarding “AACCGGGAGAAGCAGGAUAUUGCCUCUUCAACAUGAGGAUCACCCAUGUAAGUAAAUUGACGAUACAAGAAGGGCUGCUCCUUAC [Raatgees]”, the entries for the “apparent KD of MS2 coat protein” value in the series on MS2 coat protein [1] and with MS2 coat protein [2] were 30.5 nM and 74.3 nM, respectively.

Take “AAGAAACAUGAGGAUCACCCAUGUAAAUAAAUCUCAGGAUAUCGUACAUGGAAGAUCUAACGAGAAGGGAGAAGAA [Pariah 1 (MS2 Riboswitches - Same State 1)]”: the “apparent KD of MS2 coat protein” value turned out to be 85.7 nM in the series with MS2 coat protein [1] and 63.4 nM with MS2 coat protein [2].

Take “AAGAAACAUGAGGAUCACCCAUGUAAGAUAAACACAGGAUAUGCGAAAAUAAAUAAAUAAGCAGAAGGGUGAAGAA [Mat - Same State 1 - Tesla mod - 66]”: the “apparent KD of MS2 coat protein” value in the series with MS2 coat protein [1] was found to be 14.8 nM; with MS2 coat protein [2], 42.4 nM.

As to “AAGAAACAUGAGGAUCACCCAUGUAGAAAUAUGGGAGGAUAUACAAGGACGAAAGUCAAGGUAGAAGGCCUAAGAA [Mat - Same State 1 - Meechl mod - D132]”, the “apparent KD of MS2 coat protein” value is 20.7 nM in the series with MS2 coat protein [1] and 112 nM with MS2 coat protein [2].

With “AAGAAACAUGAGGAUCACCCAUGUCAAGAGAGACUAGGAUAUCUGAAUUAAUUAAAUUAAGGAGAAGGAGUGAAAA [71%, Same state of confusion2, 2]”, the “apparent KD of MS2 coat protein” value in the series with MS2 coat protein [1] turned out to be 35.9 nM; in the series on MS2 coat protein [2], 88.6 nM.

As for “AAGAAACAUGAGGAUCACCCAUGUGGAAAUAUGGGAGGAUAUACAAGGACGUAAGUCAAGGUAGAAGGCCUAAGAA [Mat - Same State 1 - Meechl mod - D138]”, the “apparent KD of MS2 coat protein” value is 21.5 nM in the series with MS2 coat protein [1] and 134 nM in the series on MS2 coat protein [2].

“AAGAAAGUUUACGAGGAUAUGUUCCGCAUAACAUGAGGAUCACCCAUGUGAACAAGAAAGGCGACGCAGAAGGCGUGAGCAAAGA [Atanansori]”: the “apparent KD of MS2 coat protein” value in the series on MS2 coat protein [1] worked out at 26.1 nM; in the series on MS2 coat protein [2], 403 nM.

As for “AAGAGACAUGAGGAUCACCCAUGUAGGAUUAUGGGAGGAUAUACAAAGACGAGAGUCAGAGUAGAAGGCCUAGGAA [salish99-ss1-129(!)]”, the “apparent KD of MS2 coat protein” value was found to be 24.5 nM with MS2 coat protein [1] and 65.1 nM with MS2 coat protein [2].

For the sequence “AAGAUACAUGAGGAUCACCCAUGUCACCUCACACGAGGAUAUCUGUGCAGUACUCAGUACGGAGAAGGCGUGGAAA [Mat - Same State 1 - Hyphema mod - D98]”, the “apparent KD of MS2 coat protein” value with MS2 coat protein [1] amounted to 25 nM; in the series on MS2 coat protein [2] it was 56.4 nM.

For the sequence “AAUACACAUGAGGAUCACCCAUGUAGAAAGAAGGCAGGAUAUCAGAUCCACAUGUGAUAAUGAGAAGGGCCAAUAA [SS 1 Tesla 9]”, the “apparent KD of MS2 coat protein” value with MS2 coat protein [1] was found to be 21.1 nM; with MS2 coat protein [2], 102 nM.

As for “AAUAGACAUGAGGAUCACCCAUGUAGAAUUAUGGGAGGAUAUACAAAGACGAGAGUCAGAGUAGAAGGCCUAGGAA [salish99-ss1-148]”, the “apparent KD of MS2 coat protein” value is 23.6 nM in the series with MS2 coat protein [1] and 71.5 nM with MS2 coat protein [2].

For the sequence “AAUAGACAUGAGGAUCACCCAUGUAGAAUUAUGGGAGGAUAUACAAAGACGAGAGUCAGAGUAGAAGGCCUAGGAU [salish99-ss1-149]”, the “apparent KD of MS2 coat protein” value turned out to be 24.7 nM with MS2 coat protein [1] and 51.8 nM in the series with MS2 coat protein [2].

In the case of “AAUAUACAUGAGGAUCACCCAUGUUAGGUGGGACUAGGAUAUCAAAAUACAUAAUGAACAUGAGAAGGAGUAUCAA [JR_SS001_Sub403]”, the “apparent KD of MS2 coat protein” value is 140 nM in the series with MS2 coat protein [1] and 249 nM in the series on MS2 coat protein [2].

Consider “AAUAUACAUGAGGAUCACCCAUGUUAGGUGGGACUAGGAUAUCAGAGUACAUAAUGAACAUGAGAAGGAGUAUCAA [JR_SS001_Sub404]”, for which the “apparent KD of MS2 coat protein” value is 115 nM with MS2 coat protein [1] and 110 nM in the series on MS2 coat protein [2].

In the case of “AAUAUACAUGAGGAUCACCCAUGUUUUAAUAACGCAGGAUAUACGGGUGAAAACAGCAUAGUAGAAGGGCGAAAAA [SameState1 Malc#1]”, the “apparent KD of MS2 coat protein” value was 31.8 nM in the series on MS2 coat protein [1] and 106 nM with MS2 coat protein [2].

“AAUAUACAUGAGGAUCACCCAUGUUUUAAUAACUGAGGAUAUACGGGUGAAAACAGCAUAGUAGAAGGCAGAUAUA [SameState1 Malc#6]”: the “apparent KD of MS2 coat protein” value in the series with MS2 coat protein [1] stood at 37.8 nM; in the series on MS2 coat protein [2] it was 102 nM.

Consider “AAUAUAUUAUUUAAGGAUAUCAUAGGAAACACAUGAGGAUCACCCAUGUGGGAAACCUGGUCGGGUGAGAAGGUGGAUAAUAUAU [Samwise Clockwise 35 - Jieux - Same State 2]”, for which the “apparent KD of MS2 coat protein” value turned out to be 13.8 nM in the series with MS2 coat protein [1] and 35.2 nM in the series on MS2 coat protein [2].

Regarding “AAUCCAAAUAGUCAGGAUAUCAAAAAUAAGACAUGAGGAUCACCCAUGUACUAAGUAAAAGUAAAUGAGAAGGGACAGGGUGAAA [JR_SS002_Sub402]”, the figures for the “apparent KD of MS2 coat protein” value with MS2 coat protein [1] and in the series with MS2 coat protein [2] were 138 nM and 145 nM, respectively.

In the case of “AAUGAACAUGAGGAUCACCCAUGUUCUAACAGUUGAGGAUAUGUGGGUGAAAAUAGCACGGCAGAAGGCGAGUGUA [SameState1 Malc#20]”, the results for the “apparent KD of MS2 coat protein” value with MS2 coat protein [1] and in the series on MS2 coat protein [2] were 119 nM and 54.6 nM, respectively.

For the sequence “AAUUGACAUGAGGAUCACCCAUGUAGGAUUAUGGGAGGAUAUACAAAGACGAGAGUCAGAGUAGAAGGCCUAGGAA [salish99-ss1-146]”, the figures for the “apparent KD of MS2 coat protein” value in the series on MS2 coat protein [1] and in the series with MS2 coat protein [2] were 25 nM and 82.1 nM, respectively.

In the case of “ACUAUACAUGAGGAUCACCCAUGUUAGCUGGGCGAAGGAUAUGUAGAUGGAUAAAAAUAUGCAGAAGGUCGAUAAC [JR_SS001_Sub210]”, the “apparent KD of MS2 coat protein” value in the series on MS2 coat protein [1] came out at 39.5 nM; with MS2 coat protein [2], 77.2 nM.

For the sequence “AGAAAUAAAAGAGAGGAUAUCCUAAAGAAAACAUGAGGAUCACCCAUGUAAAAGAAAAUAAAAUGGGAGAAGGCUCAAAAUAAAG [80%, More Helter Skelter 2]”, the “apparent KD of MS2 coat protein” value came out at 15.4 nM in the series with MS2 coat protein [1] and 39.5 nM with MS2 coat protein [2].

For “AGAAAUAAAAGCUAGGAUAUCCAAAAGAAAACAUGAGGAUCACCCAUGUGAAAGAAAAUAAAAUGGGAGAAGGAGCAAAAUAAGA [Topaz 51]”, the “apparent KD of MS2 coat protein” value in the series with MS2 coat protein [1] was 17.5 nM; in the series with MS2 coat protein [2], 31 nM.

On to “AGAAAUAAACCGAAGGAUAUCCAAACCUAAACAUGAGGAUCACCCAUGUAAAAGAAAAUAAAAUGGGAGAAGGUCGGAAAUAAGA [Designing denovo 13]”, for which the “apparent KD of MS2 coat protein” value in the series on MS2 coat protein [1] came to 17.7 nM; in the series on MS2 coat protein [2], 25.3 nM.

Regarding “AGAAGACAUGAGGAUCACCCAUGUGGGAAUAUGGGAGGAUAUACAAAGACGAGAGUCAGAGUAGAAGGCCUAGGCA [salish99-ss1-111]”, the “apparent KD of MS2 coat protein” value with MS2 coat protein [1] is 47 nM; with MS2 coat protein [2], 129 nM.

Turning to “AGAAGACAUGAGGAUCACCCAUGUGGGAAUAUGGGAGGAUAUACAAAGACGAGAGUCAGAGUAGAAGGCCUAGGUA [salish99-ss1-109]”, the “apparent KD of MS2 coat protein” value with MS2 coat protein [1] is 32.5 nM; with MS2 coat protein [2], 99.5 nM.

Turning to “AGAAUAAAAACAGAGGAUAUCCAAAAGAAAACAUGAGGAUCACCCAUGUAAAAGAAAAUAAAAUGGGAGAAGGCUGAAAUAAAGA [Mat - Same State 2 - Eli mod - D97]”, the figures for the “apparent KD of MS2 coat protein” value with MS2 coat protein [1] and with MS2 coat protein [2] were 14.9 nM and 33.2 nM, respectively.

Consider “AGGAAACAUGAGGAUCACCCAUGUAAAAGGUGGUUAGGAUAUGCAAAAAGAAAAAGAAAAGCAGAAGGGACAAGAA [mod of top voted: #1]”, for which the “apparent KD of MS2 coat protein” value in the series with MS2 coat protein [1] turned out to be 351 nM; with MS2 coat protein [2], 600 nM.

For the sequence “AGGAAACAUGAGGAUCACCCAUGUAGAAAUAUGGGAGGAUAUACAAAGACGAAAGUCAAAGUAGAAGGCCUAAAAA [Mat - Same State 1 - Mod - D151]”, the “apparent KD of MS2 coat protein” value in the series with MS2 coat protein [1] came out at 17.6 nM; in the series on MS2 coat protein [2], 57.1 nM.

Consider “AGGAGACAUGAGGAUCACCCAUGUGAGAAGAGGCGAGGAUAUCGAAAAAAAGAAAGAAAACGAGAAGGCGCGAGAA [salish99-SS1-015]”, for which the “apparent KD of MS2 coat protein” value in the series on MS2 coat protein [1] was determined as 37.6 nM; in the series on MS2 coat protein [2], 64.5 nM.

As to “AGGAGACAUGAGGAUCACCCAUGUGAGAAGAGGCGAGGAUAUCGAAAGAAAGAAGAGAAACGAGAAGGCGCGAGCG [salish99-SS1-028]”, the “apparent KD of MS2 coat protein” value came to 26.7 nM with MS2 coat protein [1] and 34.3 nM with MS2 coat protein [2].

Regarding “AGGAGACAUGAGGAUCACCCAUGUGAGAAGAGGCGAGGAUAUCGAAAGAAAGAAGAGAAACGAGAAGGCGCGAGUG [salish99-SS1-026]”, the “apparent KD of MS2 coat protein” value is 28.1 nM in the series with MS2 coat protein [1] and 40.9 nM with MS2 coat protein [2].

On to “AUAAAACAUGAGGAUCACCCAUGUAGACACGUGGGAGGAUAUACUAGAUCGAAAGAUCUAGUAGAAGGCCUUCGUA [Mat - Same State 1 - JL mod - D94]”, for which the “apparent KD of MS2 coat protein” value in the series with MS2 coat protein [1] worked out at 23.7 nM; in the series on MS2 coat protein [2], 38.4 nM.

For the sequence “AUAAAACAUGAGGAUCACCCAUGUCCGACAAAUCAAGGAUAUGAGAGCCUAACCAGGCUGUUAGAAGGUGAAAGAU [Riteat]”, the “apparent KD of MS2 coat protein” value in the series with MS2 coat protein [1] amounted to 229 nM; with MS2 coat protein [2], 192 nM.

Regarding “AUAAAAGAAGCGAAGGAUAUCCAAAGGACCACAUGAGGAUCACCCAUGUAAAGAAAGAAAAAAUGGGAGAAGGUCGCAAAGAAUA [73%, More Fisker Same State 2, D3, 7]”, the “apparent KD of MS2 coat protein” value was determined as 74.9 nM in the series on MS2 coat protein [1] and 97.4 nM with MS2 coat protein [2].
